Assay results published in US20090041770A1.

These substances were tested against human FcRn fused to a His-tag and glutathione S transferase (FcRn-His-GST), complex of FcRn heavy chain with beta-2-microglobulin (human) (UniProt P55899) (assay: AlphaScreen competition).

Compared with S239D/I332D (antibody), S239D/K326T/I332E (antibody) is higher in FcRn Binding ratio Variant / WT: 1.12 for the first, 2.22 for the second.

Compared with S239D/N297D/I332E (antibody), S239E (antibody) is lower in FcRn Binding ratio Variant / WT: 3.09 for the first, 1.47 for the second.

Compared with S239E/I332E (antibody), S239E/V264I/A330Y/I332E (antibody) is higher in FcRn Binding ratio Variant / WT: 1.34 for the first, 2.36 for the second.

Going from S239E/V264I/I332E (antibody) to “S239E/V264I/S298A/A330Y/I332E (antibody)”, the FcRn Binding ratio Variant / WT rises from 2.71 to 10.1.

Compared with S239G (antibody), S239L (antibody) is higher in FcRn Binding ratio Variant / WT: 1.16 for the first, 4.6 for the second.

Compared with S239M (antibody), S239Q/I332E (antibody) is higher in FcRn Binding ratio Variant / WT: 1.03 for the first, 1.33 for the second.

First: S239Q/I332N (antibody)
Second: S239Q/I332Q (antibody)
The FcRn Binding ratio Variant / WT of the first is higher: 1.11 for the first, 1.04 for the second.

Compared with S239R (antibody), S239T (antibody) is higher in FcRn Binding ratio Variant / WT: 1.04 for the first, 1.12 for the second.

Going from S239V (antibody) to S267E (antibody), the FcRn Binding ratio Variant / WT rises from 1.17 to 2.24.

First: S267K (antibody)
Second: S267L/A327S (antibody)
The FcRn Binding ratio Variant / WT of the first is higher: 1.7 for the first, 1.05 for the second.

Going from S298E (antibody) to S298F (antibody), the FcRn Binding ratio Variant / WT falls from 1.54 to 1.15.

Compared with S298H (antibody), S298T (antibody) is lower in FcRn Binding ratio Variant / WT: 3.99 for the first, 2.13 for the second.

First: S304N (antibody)
Second: S304T (antibody)
The FcRn Binding ratio Variant / WT of the first is lower: 1.19 for the first, 2.86 for the second.

Going from S324D (antibody) to S324G (antibody), the FcRn Binding ratio Variant / WT rises from 1.27 to 2.74.

Going from S324T (antibody) to T223E (antibody), the FcRn Binding ratio Variant / WT rises from 1.07 to 2.04.

Going from T223K (antibody) to T225E (antibody), the FcRn Binding ratio Variant / WT rises from 2.97 to 4.89.

Going from T225K (antibody) to T225W (antibody), the FcRn Binding ratio Variant / WT rises from 5.68 to 6.89.

First: T260D (antibody)
Second: T260E (antibody)
The FcRn Binding ratio Variant / WT of the first is lower: 1.71 for the first, 5.49 for the second.

First: T260H (antibody)
Second: T260Y (antibody)
The FcRn Binding ratio Variant / WT of the first is lower: 7.3 for the first, 7.51 for the second.

First: T299F (antibody)
Second: T299H (antibody)
The FcRn Binding ratio Variant / WT of the first is lower: 1.86 for the first, 2.03 for the second.

Compared with T299W (antibody), T299Y (antibody) is higher in FcRn Binding ratio Variant / WT: 1.09 for the first, 3.85 for the second.

Compared with T335F (antibody), T335H (antibody) is lower in FcRn Binding ratio Variant / WT: 1.19 for the first, 1.16 for the second.

Going from T335I (antibody) to T335L (antibody), the FcRn Binding ratio Variant / WT rises from 1.41 to 1.5.

First: T335M (antibody)
Second: T335N (antibody)
The FcRn Binding ratio Variant / WT of the first is higher: 1.35 for the first, 1.23 for the second.

First: T335P (antibody)
Second: T335S (antibody)
The FcRn Binding ratio Variant / WT of the first is higher: 1.45 for the first, 1.42 for the second.

Going from T335V (antibody) to T335W (antibody), the FcRn Binding ratio Variant / WT rises from 1.25 to 1.35.

Going from V240I (antibody) to V240M (antibody), the FcRn Binding ratio Variant / WT rises from 1.28 to 2.5.

Compared with V240T (antibody), V262E (antibody) is higher in FcRn Binding ratio Variant / WT: 2.61 for the first, 9.27 for the second.

First: V263I (antibody)
Second: V264A (antibody)
The FcRn Binding ratio Variant / WT of the first is higher: 2.71 for the first, 1.12 for the second.

Compared with V264D (antibody), V264F (antibody) is lower in FcRn Binding ratio Variant / WT: 7.67 for the first, 1.07 for the second.

First: V264I (antibody)
Second: V264I/A330L/I332E (antibody)
The FcRn Binding ratio Variant / WT of the first is higher: 1.32 for the first, 1.13 for the second.

First: V264I/I332E (antibody)
Second: V264N (antibody)
The FcRn Binding ratio Variant / WT of the first is lower: 1.7 for the first, 3.39 for the second.

First: V264S (antibody)
Second: V264T (antibody)
The FcRn Binding ratio Variant / WT of the first is higher: 5.13 for the first, 1.66 for the second.

Going from V266I (antibody) to V282E (antibody), the FcRn Binding ratio Variant / WT rises from 1.17 to 1.91.

Compared with V282G (antibody), V282K (antibody) is higher in FcRn Binding ratio Variant / WT: 1.16 for the first, 1.44 for the second.

First: V282Y (antibody)
Second: V284L (antibody)
The FcRn Binding ratio Variant / WT of the first is higher: 1.92 for the first, 1.51 for the second.

Going from V284T (antibody) to V302I (antibody), the FcRn Binding ratio Variant / WT rises from 1.15 to 2.44.

First: V303E (antibody)
Second: V303Y (antibody)
The FcRn Binding ratio Variant / WT of the first is higher: 1.63 for the first, 1.15 for the second.

First: Y278D (antibody)
Second: Y278I (antibody)
The FcRn Binding ratio Variant / WT of the first is higher: 1.79 for the first, 1.52 for the second.

Going from Y278L (antibody) to Y278M (antibody), the FcRn Binding ratio Variant / WT falls from 1.74 to 1.28.

First: Y278N (antibody)
Second: Y278R (antibody)
The FcRn Binding ratio Variant / WT of the first is higher: 1.33 for the first, 1.23 for the second.

First: Y278S (antibody)
Second: Y278V (antibody)
The FcRn Binding ratio Variant / WT of the first is lower: 1.23 for the first, 1.27 for the second.

First: Y296E (antibody)
Second: Y296I (antibody)
The FcRn Binding ratio Variant / WT of the first is lower: 1.23 for the first, 1.71 for the second.

Going from Y296L (antibody) to Y300A (antibody), the FcRn Binding ratio Variant / WT falls from 2.78 to 1.04.

Compared with Y300E (antibody), Y300G (antibody) is lower in FcRn Binding ratio Variant / WT: 1.27 for the first, 1.07 for the second.

First: Y300K (antibody)
Second: Y300M (antibody)
The FcRn Binding ratio Variant / WT of the first is lower: 1.01 for the first, 1.1 for the second.

Compared with Y300N (antibody), Y300Q (antibody) is lower in FcRn Binding ratio Variant / WT: 1.14 for the first, 1.11 for the second.

Substance Y300V (antibody) has a FcRn Binding ratio Variant / WT of 1.09.

Each substance was assayed against human FcRn fused to a His-tag and glutathione S transferase (FcRn-His-GST), complex of FcRn heavy chain with beta-2-microglobulin (human) (UniProt P55899) (assay: AlphaScreen competition, […] NaCl).

Going from P257L AC10 - IgG1 (antibody) to V308F AC10 - IgG1 (antibody), the FcRn Binding Fold-Increase rises from 44 to 46.1.

Each substance was assayed against human FcRn fused to a His-tag and glutathione S transferase (FcRn-His-GST), complex of FcRn heavy chain with beta-2-microglobulin (human) (UniProt P55899) (assay: AlphaScreen competition, 25 mM NaCl).

Going from P257N/^281S (antibody) to ^281D (antibody), the Medan Fold Increase falls from 5.99 to 0.89.

First: ^281S/V308F (antibody)
Second: ^281S/V308Y (antibody)
The Medan Fold Increase of the first is higher: 2.13 for the first, 1.46 for the second.

With ^281T (antibody) the Medan Fold Increase was 0.56.
